Numbering of substitutions follows the chain as printed. In names and notes the source's numbering stands. Like-named read-outs stand apart in the source and are kept apart here.

Results on 23 molecules are retold here after patent publication US20160032014A1 (Amgen, published 2016).

Test [1] addresses T1, human PCSK9 (self-cleaved, mature, secreted PCSK9 comprising amino acids 31 to 692 of SEQ ID NO: 2) (human, UniProt Q8NBP7 31-692, biotinylated in the ELISAs).
T1 construct: Limits 31-692 are stated for the immunogen; the assays only say human PCSK9; also called huPCSK9; rhu PCSK9
The test is described as follows: SPR pH 5.5.

The target in test [2] is T1, human PCSK9 (self-cleaved, mature, …). The test is described as follows: SPR pH 7.4.
Test [3] has the same target. Put plainly: solution equilibrium, BIAcore. (In general: Surface plasmon resonance follows binding to a sensor surface in real time, without labels.)
For test [4] the target is unchanged. The test is described as follows: solution equilibrium, BIAcore, pH 5.5.
Test [5] has the same target. Put plainly: solution equilibrium, BIAcore, pH 7.4.
Test [6] has the same target. Put plainly: SPR pH 7.4. This is another data set of the same source.
The target is the same in test [7]. The test is described as follows: SPR pH 7.4. The source holds these as a separate data set.

B1: SS-15132 (antibody, V domains shown)
VH: EVQLVESGGGLVKPGGSLRLSCAASGFTFSSYSMNWVRQAPGKGLEWVSSISSSSSYHSYADSVKGRFTISRDNAKNSLYLQMNSLRAEDTAVYFCARDYDFHSAHYDAFDVWGQGTMVTVSS
VL: ESVLTQPPSVSGAPGQRVTISCTGSSSNIGAGYDVHWYQQLPGTAPKLLISGNSNRPSGVPDRFSGSKSGTSASLAITGLQAEDEADYYCQSYDSSLSGSVFGGGTKLTVLG
notes: 31H4 His variant: HC 68(58), 132(106), parental(113H)
As usually defined, the Kd is the constant that tells how readily two partners part at equilibrium. Broadly, the koff is the first-order rate constant of dissociation. The term kon denotes a measure of how fast the partners come together. Consider B1, for which the “estimated complex half life pH 5.5” value in test [1] is 20 s. In addition, in test [2], the Kd stood at 0.273 nM, the koff amounted to 0.000338 s⁻¹ and the kon amounted to 1.24e+06 M⁻¹ s⁻¹.

B2: SS-15065 (antibody, V domains shown)
VH: B1 VH with H58I
VL: B1 VL with Y33H
notes: 31H4 His variant: LC 39(32), HC 132(106), parental(113H)
B2: the “estimated complex half life pH 5.5” value in test [1] was 100 s. For the same molecule, in test [2], the affinity, expressed as Kd, was 0.274 nM; the koff was 0.000337 s⁻¹; the on-rate constant (kon) is 1.23e+06 M⁻¹ s⁻¹.

B3: SS-15087 (antibody, V domains shown)
VH: B1 VH with H58I
VL: B1 VL with S98H
For B3, the “estimated complex half life pH 5.5” value in test [1] is 100 s. Further, in test [2], the Kd stood at 0.229 nM, the koff turned out to be 0.000288 s⁻¹ and the kon is 1.26e+06 M⁻¹ s⁻¹.

B4: SS-15114 (antibody, V domains shown)
VH: B1 VH with Y32H, H58I
VL: B1 VL
notes: 31H4 His variant: HC 39(32), 132(106), parental(113H)
Turning to B4, the “estimated complex half life pH 5.5” value in test [1] is 100 s. In addition, in test [2], the affinity, expressed as Kd, was 0.271 nM; the koff was found to be 0.00015 s⁻¹; the on-rate (kon) stood at 555000 M⁻¹ s⁻¹.

B5: SS-13991 (antibody, V domains shown)
VH: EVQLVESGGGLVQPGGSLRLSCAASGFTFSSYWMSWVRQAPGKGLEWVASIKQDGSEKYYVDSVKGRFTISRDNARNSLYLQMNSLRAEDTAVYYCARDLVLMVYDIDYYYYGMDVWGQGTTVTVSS
VL: DIVMTQSPLSLPVTPGEPASISCRSSQSLLHSNGHNYLDWYLQKPGQSPQLLIYLGLNRAHGVPDRFSGSGSGTDFTLKISRVEAEDVGVYYCMQALQTPLTFGGGTKVEIKR
notes: HC WT, LC Tyr38(35)His, Ser68(57)Leu, Ser72(61)His; also called A02
For the molecule B5, the “KD ratio pH 5.5/pH 7.4” value in test [3] was found to be 9.7. In addition, the dissociation constant Kd in test [4] was found to be 2.8 nM; in test [5], 0.29 nM.

B6: SS-15501 (antibody, V domains shown)
VH: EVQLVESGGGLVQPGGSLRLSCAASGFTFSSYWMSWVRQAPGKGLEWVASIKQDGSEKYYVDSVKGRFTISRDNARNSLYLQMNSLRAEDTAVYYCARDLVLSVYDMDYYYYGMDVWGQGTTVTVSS
VL: B5 VL with N33F
With B6, in test [6], the Kd stood at 0.804 nM, the off-rate constant (koff) came out at 0.000578 s⁻¹ and the kon stood at 719000 M⁻¹ s⁻¹. In test [7], this molecule displayed a Kd of 0.804 nM, a koff of 0.000578 s⁻¹ and a kon of 719000 M⁻¹ s⁻¹.

B7: SS-15504 (antibody, V domains shown)
VH: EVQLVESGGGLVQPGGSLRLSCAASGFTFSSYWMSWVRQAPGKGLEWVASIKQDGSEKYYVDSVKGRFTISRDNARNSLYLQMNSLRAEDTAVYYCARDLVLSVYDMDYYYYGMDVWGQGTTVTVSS
VL: B5 VL
notes: HC M103S/I107M, LC Y35H, S57L, S61H
In the case of B7, in test [6], binding was put at a Kd of 0.232 nM, the dissociation rate constant (koff) came to 8.26e-05 s⁻¹ and the kon stood at 356000 M⁻¹ s⁻¹. In test [7], this molecule displayed a Kd of 0.232 nM, a koff of 8.26e-05 s⁻¹ and a kon of 356000 M⁻¹ s⁻¹.

B8: SS-13993 (antibody, V domains shown)
VH: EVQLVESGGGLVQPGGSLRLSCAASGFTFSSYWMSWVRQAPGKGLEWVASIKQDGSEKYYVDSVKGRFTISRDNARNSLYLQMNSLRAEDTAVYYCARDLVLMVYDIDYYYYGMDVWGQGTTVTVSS
VL: B5 VL with H61S, S72H
notes: HC WT, LC Tyr38(35)His, Ser68(57)Leu, Ser83(72)His; also called C02
For the molecule B8, in test [3], the “KD ratio pH 5.5/pH 7.4” value was 12.2. The results for the Kd in test [4] and in test [5] were 2.8 nM and 0.23 nM, respectively.

B9: SS-15195 (antibody, V domains shown)
VH: not shown
VL: B5 VL
notes: HC I107M, LC Y35H, S57L, S61H
Take B9: the dissociation constant (Kd) in test [6] is 0.0611 nM; in test [7] it was 0.0611 nM; in test [4], 0.45 nM; in test [5], 0.035 nM. In addition, the koff in test [6] and in test [7] was 1.98e-05 s⁻¹ throughout. Moreover, the on-rate (kon) in test [6] and in test [7] was 325000 M⁻¹ s⁻¹ in each case. Also, the “KD ratio pH 5.5/pH 7.4” value in test [3] was determined as 12.9.

B10: SS-15508 (antibody, V domains shown)
VH: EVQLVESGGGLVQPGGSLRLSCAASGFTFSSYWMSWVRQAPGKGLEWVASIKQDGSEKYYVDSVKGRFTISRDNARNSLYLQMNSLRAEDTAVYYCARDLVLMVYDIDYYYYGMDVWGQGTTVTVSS
VL: B5 VL with N33F
notes: HC WT, LC N33F, Y35H, S57L, S61H
In test [6], B10 came in with a Kd of 1.57 nM, a koff of 0.00092 s⁻¹ and a kon of 585000 M⁻¹ s⁻¹. In test [7], this molecule displayed a Kd of 1.57 nM, an off-rate (koff) of 0.00092 s⁻¹ and an association rate constant (kon) of 585000 M⁻¹ s⁻¹.

B11: SS-15505 (antibody, V domains shown)
VH: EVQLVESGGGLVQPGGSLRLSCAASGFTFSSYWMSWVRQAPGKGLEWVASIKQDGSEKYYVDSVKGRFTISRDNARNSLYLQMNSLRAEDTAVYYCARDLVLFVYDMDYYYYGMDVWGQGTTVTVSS
VL: B5 VL
notes: HC M103F/I107M, LC Y35H, S57L, S61H
In test [6], B11 showed a Kd of 0.0763 nM, a koff of 1.98e-05 s⁻¹ and a kon of 260000 M⁻¹ s⁻¹. In test [7], this molecule returned an equilibrium dissociation constant (Kd) of 0.0763 nM, a koff of 1.98e-05 s⁻¹ and a kon of 260000 M⁻¹ s⁻¹.

B12: SS-15506 (antibody, V domains shown)
VH: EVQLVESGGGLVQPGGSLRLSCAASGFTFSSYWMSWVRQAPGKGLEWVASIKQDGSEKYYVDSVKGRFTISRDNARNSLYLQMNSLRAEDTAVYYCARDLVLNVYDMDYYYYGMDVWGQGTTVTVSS
VL: B5 VL
notes: HC M103N/I107M, LC Y35H, S57L, S61H
In test [6], B12 gave a dissociation constant Kd of 0.245 nM, a koff of 5.89e-05 s⁻¹ and a kon of 240000 M⁻¹ s⁻¹. In test [7], this molecule had a Kd of 0.245 nM, a koff of 5.89e-05 s⁻¹ and a kon of 240000 M⁻¹ s⁻¹.

B13: SS-15497 (antibody, V domains shown)
VH: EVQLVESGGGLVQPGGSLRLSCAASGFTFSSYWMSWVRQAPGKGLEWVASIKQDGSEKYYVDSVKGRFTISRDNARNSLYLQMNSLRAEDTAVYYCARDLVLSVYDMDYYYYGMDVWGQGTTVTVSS
VL: DIVMTQSPLSLPVTPGEPASISCRSSQSLLHSGNGYNYLDWYLQKPGQSPQLLIYLGLNRASGVPDRFSGSGSGTDFTLKISRVEAEDVGVYYCMQAIHTPLTFGGGTKVEIKR
notes: HC VH6 (M103S, I107M), LC G33 insertion, S57L, L97I, Q98H
B13: the Kd in test [6] came to 0.249 nM; in test [7] it was 0.249 nM; in test [4] it was 0.68 nM; in test [5], 0.084 nM. Moreover, the koff in test [6] and in test [7] was 9.47e-05 s⁻¹ in each case. Moreover, the kon in test [6] and in test [7] was 381000 M⁻¹ s⁻¹ in each case. The “KD ratio pH 5.5/pH 7.4” value in test [3] was 8.1.

B14: SS-14894 (antibody, V domains shown)
VH: not shown
VL: B13 VL with I98L, H99Q
notes: HC I107M, LC G33, S57L
B14: the “KD ratio pH 5.5/pH 7.4” value in test [3] was 8.8. The dissociation constant (Kd) in test [4] stood at 1.5 nM; in test [5], 0.17 nM.

B15: SS-15499 (antibody, V domains shown)
VH: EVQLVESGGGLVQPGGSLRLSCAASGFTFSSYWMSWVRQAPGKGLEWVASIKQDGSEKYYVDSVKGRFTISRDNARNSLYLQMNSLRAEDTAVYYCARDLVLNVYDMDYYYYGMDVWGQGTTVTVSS
VL: B13 VL
notes: No entry of its own
In test [6], B15 had a Kd of 0.199 nM, a koff of 5.98e-05 s⁻¹ and a kon of 301000 M⁻¹ s⁻¹. For the same molecule, in test [7], the Kd amounted to 0.199 nM, the koff is 5.98e-05 s⁻¹ and the kon amounted to 301000 M⁻¹ s⁻¹.

B16: SS-15520 (antibody, V domains shown)
VH: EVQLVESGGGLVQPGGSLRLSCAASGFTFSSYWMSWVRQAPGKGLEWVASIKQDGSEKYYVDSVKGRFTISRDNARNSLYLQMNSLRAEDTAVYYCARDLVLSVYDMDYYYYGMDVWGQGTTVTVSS
VL: B13 VL with L58Q
notes: HC VH6, LC G33, S57Q, L97I, Q98H
With B16, the “KD ratio pH 5.5/pH 7.4” value in test [3] was 7.1. Also, the Kd in test [4] came out at 1.2 nM; in test [5] it was 0.17 nM.

B17: SS-15518 (antibody, V domains shown)
VH: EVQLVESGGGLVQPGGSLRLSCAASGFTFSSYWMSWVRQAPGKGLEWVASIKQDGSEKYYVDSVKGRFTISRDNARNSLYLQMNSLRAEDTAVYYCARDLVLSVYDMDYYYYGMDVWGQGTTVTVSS
VL: B13 VL with L58N
notes: HC VH6, LC G33, S57N, L97I, Q98H
On to B17, for which, in test [3], the “KD ratio pH 5.5/pH 7.4” value is 8.6. The values for the Kd in test [4] and in test [5] were 1.2 nM and 0.14 nM, respectively.

B18: SS-14835 (antibody, V domains shown)
VH: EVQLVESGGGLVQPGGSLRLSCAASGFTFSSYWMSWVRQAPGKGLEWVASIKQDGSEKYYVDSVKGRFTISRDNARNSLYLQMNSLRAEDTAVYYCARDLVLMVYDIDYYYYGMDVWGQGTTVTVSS
VL: B13 VL
notes: HC WT, LC G33 insertion, S57L/L97I, Q98H
With B18, the Kd in test [6] came out at 0.534 nM; in test [7] it was 0.534 nM; in test [4] it was 3.1 nM; in test [5] it was 0.35 nM. The koff in test [6] and in test [7] was 0.000163 s⁻¹ throughout. In addition, the kon in test [6] and in test [7] was 306000 M⁻¹ s⁻¹ throughout. For the same molecule, in test [3], the “KD ratio pH 5.5/pH 7.4” value is 8.9.

B19: SS-15498 (antibody, V domains shown)
VH: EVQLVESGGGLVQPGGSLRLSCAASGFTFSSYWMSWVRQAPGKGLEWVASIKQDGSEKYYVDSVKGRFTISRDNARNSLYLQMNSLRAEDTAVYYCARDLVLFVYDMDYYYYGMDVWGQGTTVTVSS
VL: B13 VL
notes: No entry of its own
In test [6], B19 had a Kd of 0.123 nM, a koff of 4.14e-05 s⁻¹ and an on-rate (kon) of 335000 M⁻¹ s⁻¹. In test [7], binding was characterised by a dissociation constant (Kd) of 0.123 nM, the koff came out at 4.14e-05 s⁻¹ and the kon came out at 335000 M⁻¹ s⁻¹.

B20: SS-15515 (antibody, V domains shown)
VH: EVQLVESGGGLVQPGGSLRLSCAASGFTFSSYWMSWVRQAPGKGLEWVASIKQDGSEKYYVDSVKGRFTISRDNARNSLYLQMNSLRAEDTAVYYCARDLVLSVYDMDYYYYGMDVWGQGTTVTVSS
VL: B13 VL with L58M
notes: HC VH6, LC G33, S57M, L97I, Q98H
Turning to B20, the “KD ratio pH 5.5/pH 7.4” value in test [3] came out at 12.5. Besides, the results for the Kd in test [4] and in test [5] were 1.5 nM and 0.12 nM, respectively.

B21: SS-15196 (antibody, V domains shown)
VH: not shown
VL: B13 VL
notes: HC I107M, LC G33 insertion, S57L, L97I, Q98H
As for B21, the Kd in test [6] was 0.134 nM; in test [7], 0.134 nM; in test [4] it was 0.57 nM; in test [5] it was 0.056 nM. Also, the off-rate (koff) in test [6] and in test [7] was 5.06e-05 s⁻¹ throughout. The kon in test [6] and in test [7] was 377000 M⁻¹ s⁻¹ in each case. The “KD ratio pH 5.5/pH 7.4” value in test [3] came to 10.2.

B22: SS-15516 (antibody, V domains shown)
VH: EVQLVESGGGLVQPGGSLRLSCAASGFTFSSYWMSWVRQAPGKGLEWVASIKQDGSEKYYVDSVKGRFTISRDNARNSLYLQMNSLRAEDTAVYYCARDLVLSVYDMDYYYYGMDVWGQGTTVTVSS
VL: B13 VL with L58F
notes: HC VH6, LC G33, S57F, L97I, Q98H
Consider B22, for which, in test [3], the “KD ratio pH 5.5/pH 7.4” value was determined as 8.3. In addition, the values for the Kd in test [4] and in test [5] were 1 nM and 0.12 nM, respectively.

B23: SS-15519 (antibody, V domains shown)
VH: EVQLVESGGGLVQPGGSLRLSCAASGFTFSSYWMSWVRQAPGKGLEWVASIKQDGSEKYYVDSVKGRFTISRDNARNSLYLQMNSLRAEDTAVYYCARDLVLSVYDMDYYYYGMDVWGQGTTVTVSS
VL: B13 VL with L58W
notes: HC VH6, LC G33, S57W, L97I, Q98H
For B23, in test [3], the “KD ratio pH 5.5/pH 7.4” value was 10.4. For the same molecule, the Kd in test [4] worked out at 0.86 nM; in test [5], 0.083 nM.
